The target of experiment [1] is T1, human complement C3b protein (human, UniProt P01024 23-667; P01024 749-1663). Put plainly: cell-based or functional assay.
The target of experiment [2] is T2, cynomolgus complement C3b protein (cynomolgus monkey (Macaca fascicularis)). Put plainly: cell-based or functional assay.
In experiment [3] the target is T3, human C3d (human, UniProt P01024 1002-1303).
T3 construct: domain: C3d
Put plainly: cross reactivity, ELISA on C3d, anti-His detection. The protocol: In order to determine whether the anti-C3b antibodies described herein can bind to complement pathway components iC3b and C3c, the following steps were performed: Directly add iC3b(complement Technologies A115), C3d (complement Technologies A117), or C3c (complement Technologies A116), at 2 μg/ml in Carbonate Buffer onto Coat Maxisorp plate Nunc (442404) at 100 μl per well. Seal plates and incubate at 4° C. overnight. Aspirate plates and wash 3 times with PBS/0.5% Tween 20. Block plates with Diluent (PBS, 4% BSA Fraction V (Fisher ICN16006980), 0.1% Tween 20 (Sigma P1379), 0.1% Triton X-100 (Sigma P234729)) and incubate for 2 h at room temperature or overnight at 4° C. Then wash plates once with PBS/0.5% Tween 20. Dilute Fabs at 100 nM and subsequent dilutions (or higher concentration if needed) in diluent and plate 100 μl per well. Incubate at room temperature for 1 h. Wash plates 3 times with PBS/0.5% Tween 20. Add 100 μl/well of anti-Histidine-HRP monoclonal detection antibody at 1:400 in diluent and incubate at room temperature for 1 h. Then wash 4 times with PBS/0.5% Tween 20. Add 100 μl of TMB substrate (Pierce 34028) and incubate at room temperature for up to 5 min. Add 50 μl of Stop solution (2N Sulfuric Acid) to each well and read plate at 450 nm and correct for plastic reading at 570 nm.
A general note: An ELISA detects its analyte on a solid surface through an enzyme-linked reagent.

Experiment [4] concerns the target T1, human complement C3b protein. Put plainly: solution equilibrium titration (SET), ECL detection, Fab.
Experiment [5] addresses T2, cynomolgus complement C3b protein. Described as above.
Experiment [6] has as its target T1, human complement C3b protein. Put plainly: SPR (Biacore), C3b captured by anti-C3d antibody, Fab as analyte. For orientation: In SPR one partner is held on a chip, and binding of the other changes the refractive index at the surface.
For experiment [7], the target named is T2, cynomolgus complement C3b protein. Described as above.
In experiment [8] the target is T1, human complement C3b protein. Put plainly: bead proximity assay, C3b-acceptor beads; competitor biotinylated fH. The protocol: (§1) For C3b-C3b and C3b-fP proximity, Fabs or IgGs respectively were pre-incubated with C3b-Acceptor beads (20 μg/ml) for 60 min at room temperature. C3b-Donor beads or fP-Donor beads (20 μg/ml) were then added, and the plate was incubated overnight at room temperature before reading. For C3b-fB and C3b-fH proximity, antibodies were pre-incubated with C3b-Acceptor beads (20 μg/ml) for 60 minutes at room temperature. Biotinylated fB(D24G/N260D) or fH were then added, and incubated for 60 minutes at room temperature. SA-Donor beads were then added (20 μg/ml) and the plate was incubated overnight at room temperature before reading. Plates were read on the BMG Pherastar (ex=680, em=520-620).

For experiment [9] the target is unchanged. Put plainly: bead proximity assay, C3b-acceptor beads; competitor biotinylated fB(D24G/N260D). The protocol:
as §1

For experiment [10], the target named is T4, human C5 (human, UniProt P01031 19-673; P01031 678-1676).
T4 construct: Captured by an anti-C5 antibody in the ELISA
T4 sequence (P01031 19-673 limits assumed, chain 1 of 2): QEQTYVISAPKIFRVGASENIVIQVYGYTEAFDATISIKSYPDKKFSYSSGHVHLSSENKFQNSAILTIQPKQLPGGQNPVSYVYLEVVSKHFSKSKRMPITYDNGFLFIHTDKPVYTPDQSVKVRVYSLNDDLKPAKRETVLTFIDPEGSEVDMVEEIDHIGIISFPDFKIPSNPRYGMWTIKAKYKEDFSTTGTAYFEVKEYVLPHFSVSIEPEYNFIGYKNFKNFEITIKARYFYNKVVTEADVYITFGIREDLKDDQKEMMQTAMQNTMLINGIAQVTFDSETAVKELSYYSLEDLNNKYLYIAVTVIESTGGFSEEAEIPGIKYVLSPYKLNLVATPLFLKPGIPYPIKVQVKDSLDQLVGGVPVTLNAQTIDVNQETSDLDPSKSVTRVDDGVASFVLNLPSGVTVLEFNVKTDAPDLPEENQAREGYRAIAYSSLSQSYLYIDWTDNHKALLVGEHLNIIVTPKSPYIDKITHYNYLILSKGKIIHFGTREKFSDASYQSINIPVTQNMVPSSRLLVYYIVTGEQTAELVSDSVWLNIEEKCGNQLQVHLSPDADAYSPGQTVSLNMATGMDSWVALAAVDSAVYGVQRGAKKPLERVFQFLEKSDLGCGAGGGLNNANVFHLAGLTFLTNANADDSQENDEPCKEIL
T4 sequence (P01031 678-1676 limits assumed, chain 2 of 2): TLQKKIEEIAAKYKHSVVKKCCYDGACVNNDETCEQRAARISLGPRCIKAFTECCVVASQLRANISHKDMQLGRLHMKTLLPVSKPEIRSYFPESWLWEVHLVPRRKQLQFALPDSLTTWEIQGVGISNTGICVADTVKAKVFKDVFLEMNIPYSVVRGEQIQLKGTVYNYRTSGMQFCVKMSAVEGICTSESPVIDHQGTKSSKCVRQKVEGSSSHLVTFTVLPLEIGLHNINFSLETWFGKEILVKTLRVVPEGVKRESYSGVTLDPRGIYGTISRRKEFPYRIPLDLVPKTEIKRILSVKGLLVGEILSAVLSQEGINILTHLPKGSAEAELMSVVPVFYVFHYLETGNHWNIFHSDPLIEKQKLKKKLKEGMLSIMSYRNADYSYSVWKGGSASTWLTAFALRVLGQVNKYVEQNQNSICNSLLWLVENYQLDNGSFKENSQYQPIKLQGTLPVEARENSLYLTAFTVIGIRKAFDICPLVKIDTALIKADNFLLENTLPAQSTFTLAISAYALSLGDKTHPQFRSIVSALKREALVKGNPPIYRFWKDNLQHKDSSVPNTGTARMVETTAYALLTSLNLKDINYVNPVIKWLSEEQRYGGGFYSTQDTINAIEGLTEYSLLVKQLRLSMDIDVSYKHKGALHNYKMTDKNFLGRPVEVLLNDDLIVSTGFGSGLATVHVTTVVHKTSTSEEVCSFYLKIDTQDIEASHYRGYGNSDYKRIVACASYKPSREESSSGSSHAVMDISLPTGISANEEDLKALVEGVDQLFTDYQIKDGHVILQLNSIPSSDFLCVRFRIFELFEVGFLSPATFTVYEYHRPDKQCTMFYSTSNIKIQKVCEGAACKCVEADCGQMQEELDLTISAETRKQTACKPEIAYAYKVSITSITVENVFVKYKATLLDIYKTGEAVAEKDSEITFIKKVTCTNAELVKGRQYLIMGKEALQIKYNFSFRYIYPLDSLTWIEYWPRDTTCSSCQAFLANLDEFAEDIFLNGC
Description: cross reactivity, capture ELISA with anti-C5 capture antibody, anti-His detection.

Experiment [11] deals with T1, human complement C3b protein. Put plainly: cell-based or functional assay. This is another data set of the same source.
The target is the same in experiment [12]. Put plainly: ELISA, C3b or C3 captured by anti-C3d antibody. The protocol: The C3b antibodies were examined to determine whether they were selective for binding to C3b relative to the C3b precursor C3. Briefly, binding selectivity for C3b was determined by performing the following steps. Coat Maxisorp plate Nunc (442404) with anti-C3d rabbit monoclonal (abcam 17453) at 2 μg/ml in Carbonate Buffer at 100 μl/well. Seal plates and incubate at 4° C. overnight. Aspirate plates and wash 3 times with PBS/0.5% Tween 20. Block plates with Diluent (PBS, 4% BSA Fraction V (Fisher ICN16006980), 0.1% Tween 20 (Sigma P1379), 0.1% Triton X-100 (Sigma P234729)) and incubate for 2 h at room temperature or overnight at 4° C. Then wash plates once with PBS/0.5% Tween 20. Dilute purified C3b (complement technologies A114 lot 21) and C3 (complement technologies A113c) at 1 μg/ml in diluent and plate 100 μl per well. Incubate for 1 h at room temperature. Then wash 3 times with PBS/0.5% Tween 20.
Dilute Fabs at 100 nM and subsequent dilutions (or higher concentration) in diluent and plate 100 μl per well. Incubate at room temperature for 1 h. Wash plates 3 times with PBS/0.5% Tween 20. Add 100 μl/well of anti-Histidine-HRP monoclonal detection antibody at 1:400 in diluent and incubate at room temperature for 1 h. Then wash 4 times with PBS/0.5% Tween 20. Add 100 μl of TMB substrate (Pierce 34028) and incubate at room temperature for up to 5 min. Add 50 μl of Stop solution (2N Sulfuric Acid) to each well and read plate at 450 nm and correct for plastic reading at 570 nm.

The target in experiment [13] is T3, human C3d. Put plainly: C3d binding ELISA, IgG titrated from about 0.006 to 100 nM.
For experiment [14], the target named is T1, human complement C3b protein. Description: SPR (Biacore T100), C3b captured by anti-C3d antibody, IgG as analyte, 1:1 model.
The target in experiment [15] is T2, cynomolgus complement C3b protein. The experiment is described as above.
The target of experiment [16] is T1, human complement C3b protein. Put plainly: AlphaScreen bead proximity, C3b-Acceptor beads pre-incubated with antibody, then biotinylated fH and SA-Donor beads; blocked ligand: fH [C]. The protocol:
(§2) In brief, purified C3b and fP were conjugated to unconjugated acceptor or donor beads (PerkinElmer) using AminoLink Reductant (Pierce) during a 48 h incubation at room temperature. Beads were quenched using Carboxymethoxylamine Hemihydrochloride (Aldrich), and purified by centrifugation at 13000 rpm and three washes with 0.1M TBST. Purified fB(D24G/N260D) and fH were biotinylated during a 30 min incubation with 20-fold molar excess of NHS-Chromogenic-biotin (Pierce) at room temperature, and purified using Zeba 0.5 ml desalting columns (Pierce).
as §1
On the technique in general: Bead proximity is the source of the signal in Alpha formats.

Experiment [17] has the same target. Description: AlphaScreen bead proximity, C3b-Acceptor beads pre-incubated with antibody, then biotinylated fB(D24G/N260D) and SA-Donor beads; blocked ligand: fB [A]. The protocol: as §2, §1
For experiment [18] the target is unchanged. Put plainly: AlphaScreen bead proximity, C3b-Acceptor beads pre-incubated with antibody, then C3b-Donor beads; inhibition of C3b-C3b dimer formation; unit from the axis [Antibody] nM [D]. The protocol:
as §2, §1

Experiment [19] deals with T2, cynomolgus complement C3b protein. Description: cell-based or functional assay. This is another data set of the same source.
Experiment [20] addresses T4, human C5. Description: Direct ELISA at 2 ug/ml C5, 200 nM Fab.
Experiment [21] concerns the target T2, cynomolgus complement C3b protein. Put plainly: solution equilibrium titration (SET), ECL detection, Fab. The source holds these as a separate data set.
The target is the same in experiment [22]. Description: SPR (Biacore), C3b captured by anti-C3d antibody, Fab as analyte. The source holds these as a separate data set.

Like-named read-outs stand apart in the source and are kept apart here.

T1 sequence (P01024 23-667 P314L, chain 1 of 2): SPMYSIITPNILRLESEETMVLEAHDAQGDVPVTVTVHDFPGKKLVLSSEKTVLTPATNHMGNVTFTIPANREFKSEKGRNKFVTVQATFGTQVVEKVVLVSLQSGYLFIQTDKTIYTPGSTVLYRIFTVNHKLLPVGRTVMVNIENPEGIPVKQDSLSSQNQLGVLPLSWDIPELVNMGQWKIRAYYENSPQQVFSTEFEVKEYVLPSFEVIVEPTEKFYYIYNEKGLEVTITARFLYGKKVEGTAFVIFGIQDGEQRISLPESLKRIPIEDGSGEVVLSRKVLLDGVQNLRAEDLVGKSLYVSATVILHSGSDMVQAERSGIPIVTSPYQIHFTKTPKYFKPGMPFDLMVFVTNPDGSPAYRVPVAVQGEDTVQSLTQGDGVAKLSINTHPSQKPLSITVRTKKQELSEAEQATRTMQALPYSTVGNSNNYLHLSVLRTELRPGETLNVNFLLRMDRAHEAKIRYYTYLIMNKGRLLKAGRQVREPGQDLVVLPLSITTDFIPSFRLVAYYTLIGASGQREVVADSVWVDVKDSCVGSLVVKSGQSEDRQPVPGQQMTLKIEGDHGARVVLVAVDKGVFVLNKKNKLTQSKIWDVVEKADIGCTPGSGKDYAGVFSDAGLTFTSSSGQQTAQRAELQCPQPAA
T1 sequence (P01024 749-1663, chain 2 of 2): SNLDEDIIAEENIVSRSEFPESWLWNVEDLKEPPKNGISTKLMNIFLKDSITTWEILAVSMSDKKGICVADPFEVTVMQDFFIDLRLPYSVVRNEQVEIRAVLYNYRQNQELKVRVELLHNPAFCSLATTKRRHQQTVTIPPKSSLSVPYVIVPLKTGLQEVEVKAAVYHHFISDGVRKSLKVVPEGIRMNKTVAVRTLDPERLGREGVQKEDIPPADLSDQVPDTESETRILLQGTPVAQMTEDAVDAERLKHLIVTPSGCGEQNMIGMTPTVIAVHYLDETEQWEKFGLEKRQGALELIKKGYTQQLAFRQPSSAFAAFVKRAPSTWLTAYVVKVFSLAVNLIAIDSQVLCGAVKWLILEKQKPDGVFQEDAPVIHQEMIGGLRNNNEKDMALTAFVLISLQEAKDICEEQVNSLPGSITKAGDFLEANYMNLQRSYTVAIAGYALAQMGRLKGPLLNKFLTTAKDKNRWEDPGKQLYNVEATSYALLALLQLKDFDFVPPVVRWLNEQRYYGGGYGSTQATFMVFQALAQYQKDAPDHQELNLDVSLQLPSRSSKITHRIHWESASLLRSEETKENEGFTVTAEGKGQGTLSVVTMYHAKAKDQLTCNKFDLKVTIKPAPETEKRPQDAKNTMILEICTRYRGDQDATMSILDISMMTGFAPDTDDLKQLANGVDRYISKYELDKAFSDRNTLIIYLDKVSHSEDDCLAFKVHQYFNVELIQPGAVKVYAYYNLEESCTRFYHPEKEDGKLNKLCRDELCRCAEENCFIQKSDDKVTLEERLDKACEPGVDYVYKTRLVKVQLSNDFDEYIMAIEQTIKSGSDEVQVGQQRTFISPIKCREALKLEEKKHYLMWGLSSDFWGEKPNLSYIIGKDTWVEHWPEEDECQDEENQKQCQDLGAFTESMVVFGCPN
T3 sequence (P01024 1002-1303 limits assumed): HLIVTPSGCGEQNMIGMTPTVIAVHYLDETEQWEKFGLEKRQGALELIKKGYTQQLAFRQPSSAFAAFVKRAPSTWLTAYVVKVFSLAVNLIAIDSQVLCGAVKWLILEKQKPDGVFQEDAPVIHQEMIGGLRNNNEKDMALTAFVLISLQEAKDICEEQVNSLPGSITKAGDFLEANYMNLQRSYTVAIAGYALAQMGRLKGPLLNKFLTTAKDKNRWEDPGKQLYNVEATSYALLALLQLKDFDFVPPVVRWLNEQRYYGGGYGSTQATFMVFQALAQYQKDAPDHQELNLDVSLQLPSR

B1: MOR09124 Fab (Fab, V domains shown)
VH: QVQLVESGGGLVQPGGSLRLSCAASGFTFSSYWMTWVRQAPGKGLEWVSSIKIKPDGYAASVKGRFTISRDNSKNTLYLQMNSLRAEDTAVYYCARLFYQYFARMDYWGQGTLVTVSS
VL: DIQMTQSPSSLSASVGDRVTITCRASQDISNYLNWYQQKPGKAPKLLIYAASNLQSGVPSRFSGSGSGTDFTLTISSLQPEDFATYYCQQYDSYSPTFGQGTKVEIKR
notes: HCDR2-matured derivative of parental MOR08305
Take B1: the “C3b Dep (nM), human serum, IC50” value in experiment [1] worked out at 16 nM. Moreover, the “HA (nM), 10% human serum, IC50” value in experiment [1] worked out at 44 nM. Further, the “MAC Dep (nM), human serum, IC50” value in [1] was determined as 1 nM. Besides, in experiment [2], the “C3b Dep (nM), cyno serum, IC50” value is 73 nM. Besides, the “HA (nM), 10% cyno serum, IC50” value in [2] is 101 nM. The “MAC Dep (nM), cyno serum, IC50” value in experiment [2] turned out to be 5 nM. Also, the binding result in [3] and in experiment [10] was “no binding” in each case. Also, the Kd (usually the equilibrium constant for the complex coming apart) in [4] came out at 0.001 nM; in [5], 0.021 nM; in [6], 0.007 nM; in experiment [7], 0.033 nM. Moreover, the IC50 (as a rule, the concentration that gives 50% inhibition) in experiment [8] is 1 nM; in experiment [9] it was 3 nM.

B2: MOR09612 IgG (antibody, V domains shown)
VH: EVQLVESGGGLVQPGGSLRLSCAASGFTFSSYWMTWVRQAPGKGLEWVSSIKIKPDGYAASVKGRFTISRDNSKNTLYLQMNSLRAEDTAVYYCARLFYQYFARMDYWGQGTLVTVSS
VL: DIQMTQSPSSLSASVGDRVTITCRASQDISNYLNWYQQKPGKAPKLLIYAASNLQSGVPSRFSGSGSGTDFTLTISSLQPEDFATYYCQQWDSFSPTFGQGTKVEIKR
notes: Germlined human IgG1 with leucines 234 and 235 changed to alanines, kappa; also called antibody 9612
Consider B2, for which, in experiment [11], the “MAC deposition on zymosan, IC50” value is not above 5 nM; the “hemolysis of rabbit red blood cells, 10% human or cynomolgus serum, IC50” value was not above 50 nM; the “inhibition of C3a and C5a generation during hemolysis, IC50” value was not above 50 nM. Besides, the “fold binding selectivity for C3b over C3” value in [12] is more than 1000 fold. Further, the binding result in experiment [13] is listed as “no binding (tested: 100 nM)”. For the same molecule, in [14], binding was put at a Kd of 1.79 pM, the koff (usually the rate constant with which the complex falls apart) stood at 9.04e-06 s⁻¹ and the on-rate (kon) (commonly the rate constant with which the complex forms) is 5.05e+06 M⁻¹ s⁻¹. Further, in [15], binding was characterised by a dissociation constant (Kd) of 0.0253 nM, the off-rate constant (koff) came out at 8.67e-05 s⁻¹ and the association rate constant (kon) was 3.43e+06 M⁻¹ s⁻¹. For the same molecule, in [16], the “IC50 (read off the curve)” value was approximately 0.04 nM. In addition, the “IC50 (read off the curve)” value in experiment [17] is approximately 0.05 nM. For the same molecule, a half-maximal response in experiment [18] (EC50) required 340 nM.

B3: MOR9674 Fab format (Fab, V domains shown)
VH: EVQLVQSGAEVKKPGASVKVSCKASGYTFTSYSMHWVRQAPGQGLEWMGLINPYNGNTHYAQKFQGRVTMTRDTSISTAYMELSSLRSEDTAVYYCARMLRFDVWGQGTLVTVSS
VL: ESALTQPASVSGSPGQSITISCTGTSSDGGGYNYVSWYQQHPGKAPKLMIYGVSNRPSGVSNRFSGSKSGNTASLTISGLQAEDEADYYCQTYTRYSDSPVFGGGTKLTVLG
Regarding B3, in experiment [19], the “C3b Dep (nM), cyno serum, IC50” value amounted to 70 nM; the “HA (nM), 10% cyno serum, IC50” value amounted to 78 nM; the “MAC Dep (nM), cyno serum, IC50” value stood at 17 nM. Further, the binding result in [20] is recorded as “no binding (tested: 200 nM)”. In experiment [21], this molecule registered a Kd of 0.09 nM. For the same molecule, in experiment [22], binding was put at a Kd of 0.119 nM.

B4: MOR09423 Fab (Fab, V domains shown)
VH: QVQLVQSGAEVKKPGASVKVSCKASGYTFTGYYINWVRQAPGQGLEWMGIISPNQGTTGYAQKFQGRVTMTRDTSISTAYMELSSLRSEDTAVYYCARGNYDHLDYWGQGTLVTVSS
VL: DIQMTQSPSSLSASVGDRVTITCRASQGISNYLNWYQQKPGKAPKLLIYDASTLQSGVPSRFSGSGSGTDFTLTISSLQPEDFATYYCQQDWHTLPVTFGQGTKVEIKR
notes: also called Fab 9423
As for B4, the “C3b Dep (nM), human serum, IC50” value in [1] came to 14 nM. The “HA (nM), 10% human serum, IC50” value in [1] came to 48 nM. For the same molecule, in experiment [1], the “MAC Dep (nM), human serum, IC50” value amounted to 1 nM. Moreover, the “C3b Dep (nM), cyno serum, IC50” value in experiment [2] came out at 66 nM. Also, the “HA (nM), 10% cyno serum, IC50” value in experiment [2] was 83 nM. The “MAC Dep (nM), cyno serum, IC50” value in [2] worked out at 4 nM. Further, the binding result in [3] and in [10] was “no binding” in each case. The Kd in experiment [4] was found to be 0.1 nM; in experiment [5] it was 0.34 nM; in experiment [6] it was 0.075 nM; in [7] it was 0.486 nM. For the same molecule, the IC50 worked out at 0.08 nM in experiment [8] and 0.2 nM in [9].
